Measured values: US20210163601A1 (Amgen, published 2021)

T1: Soluble ASGR-1 (recombinant, biotinylated) (human, UniProt P07306 62-291, limits assumed, biotinylated)
T1 construct: also called recombinant, soluble ASGR-1 biotinylated protein
T1 sequence: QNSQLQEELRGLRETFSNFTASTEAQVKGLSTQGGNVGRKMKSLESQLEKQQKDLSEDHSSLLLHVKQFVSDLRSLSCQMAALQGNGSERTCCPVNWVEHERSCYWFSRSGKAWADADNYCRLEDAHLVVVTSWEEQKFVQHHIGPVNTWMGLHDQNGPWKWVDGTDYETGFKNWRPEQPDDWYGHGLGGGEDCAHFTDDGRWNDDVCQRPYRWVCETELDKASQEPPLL


Molecular target: T1, Soluble ASGR-1 (recombinant, …)
Assay: limiting antigen bead FACS; biotinylated soluble ASGR-1 coated at 2.5 ng/mL on LumAvidin beads;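 further: hybridoma supernatants of ligand-competing antibodies bound to antigen-loaded beads, read by flow cytometry on an iQue Screener in calcium-containing buffer, higher fluorescence meaning stronger relative affinity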

FACS Geomean	Binder
15100	218G4 (antibody, V domains shown, Tested as hybridoma supernatant) VH: QVQLVESGGGVVQPGRSLRLSCAASGFTFSSYGLHWVRQAPGKGLEWVAVIWYDGSNKYYADSVKGRFTISRDNSKNTLYLQMNSLRVEDTAVYYCANWYYYYYGMDVWGQGTTVTVSS VL: QSVLTQPPSVSAAPGQKVTISCSGSSSNIGNNYVSWYQQLPGTAPKLLLYDSNKRPSGIPARFSGSKSGTSATLGITGLQTGDEADYYCGTWDSSLNTVVFGGGTKLTVL
1870	198D2 (antibody, V domains shown, Tested as hybridoma supernatant) VH: QVQLVESGGGVVQPGRSLRLSCAASGFTFRSYGMHWVRQAPGKGLEWVAVIIYDGSYKYYADSVKGRFTISRDNSKNTLYLQMNSLRAEDTAVYYCARTYSGGMDVWGQGTTVTVSS VL: QSVLTQPPSVSAAPGQKVTISCSGSSSNIGSNYVSWYQQLPGTAPKVLIYDNNKRPSGIPDRFSGSKSGTSATLGITGLQTGDEADYYCGTWDSRLNVGVFGGGTKLTVL
2150	202A3 (antibody, V domains shown, Tested as hybridoma supernatant) VH: QVQLEQSGAEVKKPGASVKVSCKASGYTFTSYDINWVRQATGQGLEWLGWMNPKRGNTGYAQKFQGRVTMTRNTSISTAHMELSSLRSEDTAVYYCARGRYSREDYYYYYDMDVWGQGTTVTVSS VL: DIQMSQSPSSLSASVGDRVTITCRASQGIRNDLGWYQQKPGKAPKRLICAASRLQSGVPSRFSGSGSGTEFTLTISSLQPEDFAIYYCLQHHDYPFTFGPGTKVDIK
29400	176H4 (antibody, V domains shown, Tested as hybridoma supernatant) VH: QVQLVESGGGVVQPGRSLRLSCAASGFTFSSYGMHWVRQAPGKGLEWVAIIWYDGSYKYYADSVKGRFTISRDNSKNTLYLQMSSLRAEDTAVYYCARDAHDFWSGYFAYWGQGALVTVSS VL: DIVMTQTPLSLSVTPGQPASISCKSSQSLLHGDGKTYLYWYLQKPGQPPQLLIYEVSNRFSGVPDRFSGSGSGTDFTLKISRVEAEDVGIYYCMQSIQIPWTFGQGTRVEIK
18300	193E7 (antibody, V domains shown, Tested as hybridoma supernatant) VH: QVQLQQWGAGLLKPSETLSLTCAVYGGSFSGYFWTWIRQPPGKGLEWIGEINHSGSTNYNPSLKSRVTISVDTSKNQFSLKLSSVTAADTAVYYCARDYGADYWGQGTLVAVSA VL: DIQMTQSPSSLSASVGDRVTITCRASQGIRNDLGWYQQKPGKAPKRLIYSASSLQRGVPSRFSGSGSGTEFTLTISSLQPEDFATYYCLQHKRYPLTFGGGTKVEIK
21900	194C10 (antibody, V domains shown, Tested as hybridoma supernatant) VH: QVQLQQWGAGLLKPSETLSLTCAVSGGSFRYYYWSWIRQPPGKGLEWFGEINHSGSTNYNPSLKSRVTISIDTSKNQFSLKLRSVTAADTAVYYCARDYGAFDIWGQGTMVTVSS VL: EIVLTQSPGTLSLSPGERATLSCRASPSVNSGYLAWYQQKPGQTPRLLIFGASSRATGIPDRFSASGSGADFTLTISRLEPEDFAVYFCQQYESSPWTFGQGTKVEIK
22600	56E5 (antibody, V domains shown, Tested as hybridoma supernatant) VH: QVQLVQSGAEVKKPGASVKVSCQASGYTFTGYHMHWVRQAPGQGLEWMGWINPNNNATNYAQKFQGRVTMTRDTSISTAYMELRRLRSDDTAVYHCARDGTSSFDYWGQGTLVTVSS VL: DIQMTQSPSSVSASVGDRVTITCRASQGIRKWLAWYQQKPGKAPKLLIYAASSLQSGVPSRFSGSGSGTDFTLTISSLQPEDFATYYCQQANSFPFTFGPGTKVDIK
34000	72G9 (antibody, V domains shown, Tested as hybridoma supernatant) VH: EVQLVESGGGLVKPGGSLRLSCAASGFTFSSYSMNWVRQAPGKGLEWVSSISGSSSYIYYADSVKGRFTISRDNAKNSLYLQMNSLRAEDTAVYFCARGGSRGFDPWGQGTLVTVSS VL: DIQMTQSPSSLSASVGDRVTITCRASQSITSYLNWYQQKPGKAPKLLIYTASSLQSGVPSRFSGSGSGTDFTLTISSLQPEDFATYYCQQSHSFPFTFGPGTKVDIK

The next lines start with the binder.

Binder	FACS Geomean
12D2 (antibody, V domains shown, Tested as hybridoma supernatant) VH: EVQLVESGGGLVKPGGSLRLSCAASGFTFSSYSMNWVRQAPGKGLEWVSSISSSSSYIYYADSVKGRFTISRDNAKNSLYLQMNSLRAEDTAVYYCARLGDYWGQGTLVAVSS VL: not shown	105
7F4 (antibody, V domains shown, Tested as hybridoma supernatant) VH: QLQLQESGPGLVKPSETLSLTCTVSGGSISRSSYYWGWIRQPPGKGLEWIGNIYYSGATYYNPSLKSRVTISVDTSTNQFSLKLSSVTAADTAVYYCARHSGSWSLDYWGQGTLVTVSS VL: DIQMTQSPSSLSASVGDRVTITCRTSQGIRNDLGWYQQKPGKAPKRLIYAASNLQSGVPSRFSGSGSGTEFTLTISSLQPEDFATYYCLQHSAYPLTFGGGTKVEIK	4910
6G7 (antibody, V domains shown, Tested as hybridoma supernatant) VH: QVQLVESGGGVVQPGRSLRLSCAASGFTFSSYGMHWVRQTPGKGLEWVAIISYVGKNKYYADSVKGRFTISRDNSKNTLYLQMNSLRAEDTAVYYCARRGNSYGGYGMDVWGQGTTVTVSS VL: DIQMTQSPSSRSASVGDRVTITCQASQDISNYLNWCQQKPGKALKLLIYDASTLETGVPSRFSGSGSGTDFTFTISSVQPEDIATYYCQQYDNVPITFGQGTRLEIK	2290
4H6 (antibody, V domains shown, Tested as hybridoma supernatant) VH: QVQLVQSGAEVKKPGASVKVSCKASGYTFTDYYLHWVRQAPGQGLEWMGWIHPNSGGTNYAQKFQGRVTMTRDTSISTAYMGLSSLRSDDTAVYYCARDGTSSFDYWGQGTLVTVSS VL: DIQMTQSPSSVSASVGDRVTITCRASQGISRWLAWYQQKPGKAPKLLIYGASSLQSGVPSRFSGSGSGTDFTLTISSLQPEDFAIYYCQQANSFPFTFGPGTKVDIK	2990
54E9 (antibody, V domains shown, Tested as hybridoma supernatant) VH: QVQLVQSGAEVKKPGASVKVSCKASGYTFNSYGISWVRLAPGQGLEWMGWISAYNGNTKNAQKLQGRVTMTTDTSTSTAYMELRSLRSDDTAVYYCARHDFWSGYYKGMDVWGQGTTVTVSS VL: not shown	6490
